Entries after “also recorded” stand apart in the source; their conditions may differ.

The values that follow come from patent US20260104424A1, “METHODS, SYSTEMS AND KITS FOR IDENTIFYING BIOACTIVE COMPOUNDS AND THERAPEUTIC METHODS AND COMPOSITIONS” (priority 2022, published 2026).

Assay [1] deals with T1, CXCR2 (Homo sapiens, UniProt P25025).
T1 sequence (P25025 1-360): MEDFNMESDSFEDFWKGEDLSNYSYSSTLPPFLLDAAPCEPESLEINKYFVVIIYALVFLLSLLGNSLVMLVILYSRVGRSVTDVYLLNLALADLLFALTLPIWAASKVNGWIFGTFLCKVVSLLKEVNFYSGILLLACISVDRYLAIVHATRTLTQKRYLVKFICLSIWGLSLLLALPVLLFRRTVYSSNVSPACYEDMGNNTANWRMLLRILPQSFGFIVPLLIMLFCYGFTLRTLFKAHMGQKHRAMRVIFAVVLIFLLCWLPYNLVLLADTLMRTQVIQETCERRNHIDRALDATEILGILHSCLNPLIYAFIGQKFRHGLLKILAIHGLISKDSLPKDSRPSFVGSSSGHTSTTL
As to the kind of experiment: M13 phage binding and screening against HEK293T cells overexpressing CXCR2. To be noted: negative control protein on M13 phage.

Assay [2] addresses T2, EGFR (Homo sapiens, UniProt P00533).
T2 construct: representing the extracellular domain of the target receptor fuse to the Fc region of immunoglobulin G; purchased R&D Systems 344-ER
As to the kind of experiment: Single-round M13 phage library screening against EGFR (Ig-EGFR beads, HEK293T cells overexpressing EGFR). To be noted: for identification as hit in screen against Ig-EGFR: AT, MV and secretome libraries, versus Isotype Ig, triplicate; for identification as hit in secretome library screen: beads coated with Ig-EGFR and HEK293T cells overexpressing EGFR. In kind it is binding. As for the experimental part: For the phage immunoprecipitation-based ligand discovery, 1 μg of EGFR-Fc (R&D Systems Cat No. 344-ER) and Etanercept (Mippipore Sigma Cat No. 185243-69-0) chimera proteins, representing the extracellular domain of the target receptor fuse to the Fc region of immunoglobulin G, was incubated with the pre-blocked phage library overnight at 4° C. The following day, 20 μL of protein G beads (ThermoFisher Cat No. 10009D) were added to the phage-chimera mixture and rotated for 4 hours at 4° C. to immunocapture (IP) all chimeras. The beads were then washed three times with PBS containing 0.01% NP-40 and stored in −80° C. before sequencing.

For assay [3], the target named is T3, MrgprX4 (Homo sapiens, UniProt Q96LA9).
T3 construct: GFP; expressed in transfected cells; host or cells: HEK293-MrgprX4-GFP
T3 sequence (Q96LA9 whole entry): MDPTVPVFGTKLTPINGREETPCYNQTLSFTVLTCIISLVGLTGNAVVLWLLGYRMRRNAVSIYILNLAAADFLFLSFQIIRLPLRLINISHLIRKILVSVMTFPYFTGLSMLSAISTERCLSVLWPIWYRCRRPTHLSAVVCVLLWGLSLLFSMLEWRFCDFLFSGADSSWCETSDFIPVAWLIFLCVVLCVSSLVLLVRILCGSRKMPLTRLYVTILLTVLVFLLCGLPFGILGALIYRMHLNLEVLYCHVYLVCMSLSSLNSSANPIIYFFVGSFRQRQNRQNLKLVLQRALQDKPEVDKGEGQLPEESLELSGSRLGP
As to the kind of experiment: MrgprX4 calcium signaling assay. In kind it is cell-based. Further details: activation of MrgprX4 (agonist activity): dose or concentration left out as unconfirmed. As for the experimental part: The HEK293-MrgprX4-GFP and HEK293 cell lines were dissociated with 0.25% Trypsin (Gibco, Cat No. 25200-056) and collected after 1-2 minutes incubation. The harvested cells were then seeded at a density of 2.5E+04 cells/well in a 96-well half-area flat clear bottom black plate (Greiner Bio-One, Cat No. 675090) that was pre-treated with 0.1 mg/ml poly-D-lysine. The following day, cells were stained with FLIPR Calcium 5 dye (Molecular Devices, Cat No. R8186) in a loading buffer composed of Hanks' balanced salt solution (HBSS) with 20 mM HEPES, adjusted to pH 7.4. After a 30-minute incubation period at 37° C., TFPI (Acro Biosystems Cat No. TFI-H5226) was introduced, and the cells were incubated for an additional hour at 37° C. Subsequently, UDCA or the buffer control were automatically dispensed into the wells, which were immediately imaged using the Flexstation 3 system (Molecular Devices).

On to “$-Lactoglobulin: negative control protein displayed on phage in the CXCR2 binding test”, for which the “non-specific binding to HEK293T-CXCR2 cells” value in assay [1] was “low non-specific binding”.
With betacellulin [BTC], in assay [2], the “identification as hit in screen against Ig-EGFR” value (from here on “identification as hit in screen”) is “rediscovered; also recorded: identified” and the “identification as hit in secretome library screen” value is “robustly identified”.
For transforming growth factor-A [TGFA], in assay [2], the “identification as hit in screen” value was “rediscovered” and the “identification as hit in secretome library screen” value is reported as “robustly identified”. Besides, the “identification as hit in screen” value in assay [2] (listed as TGFa) is given as “identified”.
With “osteoprotegerin [OPG, reference compound]”, in assay [3] (negative control protein, 1 uM (n=4)), the “inhibitory activity on MrgprX4” value is recorded as “no obvious inhibitory activity”.
For tissue factor pathway inhibitor [TFPI], in assay [3], the “activation of MrgprX4 (agonist activity)” value was “does not activate”. Moreover, in assay [3] (UDCA (EC80), TFPI at 1 and 0.3 uM, n=7), the “inhibition of activation by UDCA” value is on record as “inhibiting the activation of UDCA”. For the same substance, the “concentrations down to which UDCA-induced activation of MrgprX4 was effectively inhibited” value in assay [3] (calcium-signaling assay) was 0.3 µM. Besides, the “concentration at which MrgprX4 activation was inhibited” value in assay [3] (in the presence of the MrgprX4 activator UDCA) amounted to 300 nM.
For the substance “heparin binding EGF-like growth factor [HBEGF]”, the “identification as hit in screen” value in assay [2] is on record as “rediscovered”; in assay [2] (listed as HB-EGF), “identified”. Moreover, in assay [2], the “identification as hit in secretome library screen” value is “robustly identified”.
